{"source": "patent US20070116694A1", "about": "“Inhibitor of interaction of granzyme b with golgin-160” (Daiichi Pharmaceutical Co., Ltd., priority 2003, published 2007)", "molecules": {"B1": {"name": "Procaspase-3: Recombinant Human procaspase-3 (MBL/BioVision), positive control in the in vitro protease assay of Granzyme B (protein, UniProt P42574 1-277, looked up)", "pro-form": "MENTENSVDSKSIKNLEPKIIHGSESMDSGISLDNSYKMDYPEMGLCIIINNKNFHKSTGMTSRSGTDVDAANLRETFRNLKYEVRNKNDLTREEIVELMRDVSKEDHSKRSSFVCVLLSHGEEGIIFGTNGPVDLKKITNFFRGDRCRSLTGKPKLFIIQACRGTELDCGIETDSGVDDDMACHKIPVEADFLYAYSTAPGYYSWRNSKDGSWFIQSLCAMLKQYADKLEFMHILTRVNRKVATEFESFSFDATFHAKKQIPCIVSMLTKELYFYH", "modifications": "pro-form", "notes": "Recombinant Human procaspase-3 (MBL/BioVision), positive control in the in vitro protease assay of Granzyme B"}}, "target": "T1, Granzyme B (Homo sapiens, UniProt P10144)", "T1 construct": "purchased Calbiochem 368042", "T1 sequence (P10144 21-247)": "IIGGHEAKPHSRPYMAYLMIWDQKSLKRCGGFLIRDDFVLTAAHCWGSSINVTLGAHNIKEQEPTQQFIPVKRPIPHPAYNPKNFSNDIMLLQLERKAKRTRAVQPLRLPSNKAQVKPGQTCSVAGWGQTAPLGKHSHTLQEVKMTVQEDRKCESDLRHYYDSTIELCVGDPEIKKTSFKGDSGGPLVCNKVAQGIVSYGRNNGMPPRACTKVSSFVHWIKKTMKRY", "assay": "in vitro protease assay (decomposition by Granzyme B)", "assay_type": "biochemical", "conditions": "Granzyme B 0.05 μg, substrate protein 0.2 μg, 37° C. for 2 hours, SDS-PAGE, Coomassie Brilliant Blue", "procedure": "An in vitro protease assay was carried out to confirm in an experiment whether or not Golgin-160 is decomposed by Granzyme B. Granzyme B, Human, cell culture-derived (Calbiochem, Catalog No. 368042) was purchased, and this product was used as Granzyme B. Granzyme B (0.05 μg) was added to 10 μl of a cleavage buffer containing TRX-Golgin-160, procaspase-3, or TRX-LAG 3 (0.2 μg each) (wherein the buffer consisted of 50 mM Hepes-KOH (pH 7.4), 2 mM EDTA, 1% NP-40, 0.1 M NaCl, and 10 mM DTT) (Kam C. M., Huding D., et al., “Granzymes (lymphocyte serine proteases): characterization with natural and synthetic substrates and inhibitors” in Biochim. Biophys. Acta, 1477:307-323 (2000)). The obtained mixture was incubated at 37° C. for 2 hours. After completion of the incubation, 2×SDS sample buffer (125 mM Tris-HCl (pH 6.8), 4% (w/v) sodium dodecyl sulfate, 20% (v/v) glycerol, 0.01% (w/v) bromophenol blue, and 20% (v/v) 2-mercaptoethanol) was added at an equivalent amount to each reaction solution, and the obtained mixture was heated for 5 minutes. Thereafter, the obtained reaction mixture was separated by SDS-PAGE and then stained with Coomassie Brilliant Blue. Thus, a protein and a decomposition product thereof were observed.", "data": [{"molecule": "B1", "values": [{"measurement": "decomposition by Granzyme B", "result": "decomposed"}]}]}
